According to IntAct's records for PubMed 10198631:

B1: Bcl-2-like protein 11 (Mus musculus), O54918-2 (parent)
chain: MAKQPSDVSSECDREGGQLQPAERPPQLRPGAPTSLQTEPQDRSPAPMSCDKSTQTPSPPCQAFNHYLSAMASIRQSQEEPEDLRPEIRIAQELRRIGDEFNETYTRRVFANDYREAEDHPQMVILQLLRFIFRLVWRRH

Variants of: B1
Conditions: with dlrb1_human DYNLRB1, Q9NP97
dlrb1_human DYNLRB1, Q9NP97, sequence (Q9NP97 whole entry): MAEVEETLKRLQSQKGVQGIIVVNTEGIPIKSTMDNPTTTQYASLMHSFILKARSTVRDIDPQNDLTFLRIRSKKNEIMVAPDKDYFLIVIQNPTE

Row | Variant | effect of a mutation on the interaction
1 | T54A;N65S | decreasing interaction
2 | T54A | decreasing interaction
3 | S53P | decreasing interaction
